Consider ten substances from US20240132578A1.

What is called IC50 is the concentration at which inhibition is half-maximal. A low value points to greater potency in that assay.

Holding throughout (assay): cell-based or functional assay
Experiment [1] addresses HIV-1 CMU02 envelope glycoprotein (Env) (HIV-1).
The target in experiment [2] is HIV-1 JRCSF envelope glycoprotein (Env) (HIV-1) (UniProt P20871).
In experiment [3] the target is HIV-1 MGRM-A-010 envelope glycoprotein (Env) (HIV-1).
For experiment [4], the target named is HIV-1 MGRM-C-026 envelope glycoprotein (Env) (HIV-1).
For experiment [5], the target named is HIV-1 NL43 envelope glycoprotein (Env) (HIV-1).
The target in experiment [6] is HIV-1 92UG024 envelope glycoprotein (Env) on virus (HIV-1, clade D, isolate 92UG024).
Experiment [7] has as its target HIV-1 MGRM-A-010 envelope glycoprotein (Env) on virus (HIV-1, clade A, isolate MGRM-A-010).
The target of experiment [8] is HIV-1 MGRM-AG-005 envelope glycoprotein (Env) on virus (HIV-1, clade AG, isolate MGRM-AG-005).
In experiment [9] the target is HIV-1 MGRM-C-027 envelope glycoprotein (Env) on virus (HIV-1, clade C, isolate MGRM-C-027).
In experiment [10] the target is HIV-1 MGRM-C-028 envelope glycoprotein (Env) on virus (HIV-1, clade C, isolate MGRM-C-028).
The target of experiment [11] is aMLV envelope protein on virus (negative control) (aMLV).
In experiment [12] the target is HIV-1 92TH021 envelope glycoprotein (Env), clade AE pseudovirus (HIV-1).
Experiment [13] concerns the target HIV-1 APV13 envelope glycoprotein (Env), clade B pseudovirus (HIV-1).
In experiment [14] the target is HIV-1 JRFL envelope glycoprotein (Env), clade B pseudovirus (HIV-1).
In experiment [15] the target is HIV-1 MGRM-AG-005 envelope glycoprotein (Env), clade AG pseudovirus (HIV-1).
Experiment [16] has as its target HIV-1 MGRM-C-027 envelope glycoprotein (Env), clade C pseudovirus (HIV-1).
Experiment [17] addresses HIV-1 Env of isolate 92RW020 (clade A) (HIV-1).
For experiment [18], the target named is HIV-1 Env of isolate 92UG024 (clade D) (HIV-1).
For experiment [19], the target named is HIV-1 Env of isolate 93IN905 (clade C) (HIV-1).
The target of experiment [20] is HIV-1 JR-CSF Env R304A (HIV-1 (isolate JR-CSF, clade B)) (UniProt P20871).
Experiment [21] concerns the target HIV-1 Env of pseudovirus CAAN (HIV-1).
The target in experiment [22] is HIV-1 envelope glycoprotein (Env) of isolate MGRM-C-026 (HIV-1).
Experiment [23] deals with HIV-1 envelope glycoprotein (Env) of isolate NL43 (HIV-1).
Experiment [24] deals with HIV-1 Env of isolate 92BR020 (subtype B), on pseudovirus (HIV-1).
In experiment [25] the target is HIV-1 Env of isolate MG RM-D-018 (subtype D) (HIV-1).
The target in experiment [26] is HIV-1 envelope glycoprotein (Env) of isolate MG RM-A-008 (HIV-1).
In experiment [27] the target is HIV-1 MGRM-D-001 Env (pseudovirus) (HIV-1).
Experiment [28] has as its target HIV-1 NL43 Env (pseudovirus) (HIV-1).
Experiment [29] addresses HIV-1 JR-CSF Env T319A (HIV-1 (isolate JR-CSF, clade B)) (UniProt P20871).

Where only a bound is given, the exact number is not on record here.

Chain of 5329_C19 (PGT-136) (antibody) (VH): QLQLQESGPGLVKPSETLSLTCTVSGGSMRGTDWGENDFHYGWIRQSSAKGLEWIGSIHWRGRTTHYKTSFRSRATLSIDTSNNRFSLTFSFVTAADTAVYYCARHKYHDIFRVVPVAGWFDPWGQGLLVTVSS
Chain of 5329_C19 (PGT-136) (antibody) (VL): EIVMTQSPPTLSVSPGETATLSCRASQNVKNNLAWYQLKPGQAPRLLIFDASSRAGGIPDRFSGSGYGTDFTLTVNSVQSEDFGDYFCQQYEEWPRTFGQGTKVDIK
Chain of 1443_C16 (PG16) (TCN-116) (antibody) (VH): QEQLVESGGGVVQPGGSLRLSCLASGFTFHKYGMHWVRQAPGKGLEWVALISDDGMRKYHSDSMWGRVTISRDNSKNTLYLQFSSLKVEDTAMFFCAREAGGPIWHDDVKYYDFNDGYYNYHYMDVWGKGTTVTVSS
Chain of 1443_C16 (PG16) (TCN-116) (antibody) (VL): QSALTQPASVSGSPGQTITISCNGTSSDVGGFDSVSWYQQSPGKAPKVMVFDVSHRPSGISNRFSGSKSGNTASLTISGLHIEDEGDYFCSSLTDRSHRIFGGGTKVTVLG

Regarding 5329_C19 (PGT-136) (antibody), the Neutralization IC80 is greater than 10 µg/mL in experiment [1]; greater than 10 µg/mL in [2]; greater than 10 µg/mL in [3]; 0.0285 µg/mL in experiment [4]; greater than 10 µg/mL in experiment [5]. The Neutralization IC90 was greater than 10 µg/mL in [1]; greater than 10 µg/mL in experiment [2]; greater than 10 µg/mL in experiment [3]; 0.0687 µg/mL in experiment [4]; greater than 10 µg/mL in [5]. Moreover, the Neutralization IC95 in [1] is greater than 10 µg/mL; in experiment [2] it was greater than 10 µg/mL; in experiment [3], greater than 10 µg/mL; in [4], 0.159 µg/mL; in experiment [5], greater than 10 µg/mL. Further, the neutralization IC50 in experiment [1] was greater than 10 µg/mL; in [2], greater than 10 µg/mL; in [3] it was greater than 10 µg/mL; in experiment [4] it was 0.0065 µg/mL; in experiment [5], greater than 10 µg/mL.

Take 4877_D15 (PGT-122) (antibody): the Neutralization IC80 in experiment [6] is greater than 10 µg/mL; in [7], greater than 10 µg/mL; in [8], greater than 10 µg/mL; in [9] it was 0.499 µg/mL; in experiment [10], greater than 10 µg/mL; in experiment [11], greater than 10 µg/mL. Besides, the Neutralization IC90 in experiment [6], in [7], in experiment [8], in experiment [9], in experiment [10] and in experiment [11] was greater than 10 µg/mL throughout. Moreover, the Neutralization IC95 in experiment [6], in [7], in [8], in experiment [9], in [10] and in experiment [11] was greater than 10 µg/mL each time. Besides, the neutralization IC50 in experiment [6] is greater than 10 µg/mL; in experiment [7], 1.68 µg/mL; in experiment [8], greater than 10 µg/mL; in experiment [9], 0.0388 µg/mL; in experiment [10], 2.06 µg/mL; in experiment [11] it was greater than 10 µg/mL.

As to 4858_P08 (PGT-123) (antibody), the IC50, pseudovirus neutralization was greater than 10 µg/mL in [12]; 0.222 µg/mL in [13]; 0.0283 µg/mL in experiment [14]; 0.104 µg/mL in [15]; 0.0169 µg/mL in experiment [16]. Also, the IC80 (pseudovirus neutralization) in [12] was greater than 10 µg/mL; in experiment [13] it was 0.879 µg/mL; in [14] it was 0.0904 µg/mL; in experiment [15], 1.28 µg/mL; in [16], 0.149 µg/mL. Besides, the IC90 (pseudovirus neutralization) is greater than 10 µg/mL in [12]; 1.87 µg/mL in experiment [13]; 0.178 µg/mL in [14]; 6.38 µg/mL in experiment [15]; greater than 10 µg/mL in experiment [16]. The IC95 (pseudovirus neutralization) in [12] was greater than 10 µg/mL; in [13], 3.5 µg/mL; in [14] it was 0.332 µg/mL; in [15], greater than 10 µg/mL; in experiment [16] it was greater than 10 µg/mL.

Regarding 1496_C09 (PG9) (TCN-109) (antibody), in experiment [17], the Neutralization IC80 came to 1.04 µg/mL, the Neutralization IC90 turned out to be 3.4 µg/mL and the neutralization IC50 stood at 0.161 µg/mL. In addition, the neutralization IC50 in [18] was found to be 1.91 µg/mL. In experiment [19], this substance gave a Neutralization IC80 of 0.308 µg/mL, a Neutralization IC90 of 0.981 µg/mL, a Neutralization IC95 of 3.31 µg/mL and a neutralization IC50 of 0.048 µg/mL.

In turn, 5145_B14 (PGT-127) (antibody) gave a Fold IC50 increase relative to wild-type in experiment [20] of 0.4 fold.

In the case of 1443_C16 (PG16) (TCN-116) (antibody), the IC50, pseudovirus neutralization (TZM-bl assay) in experiment [21] worked out at 6.37 µg/mL.

With 5141_B17 (PGT-126) (antibody), in experiment [22], the Neutralization IC80 was 0.0345 µg/mL, the Neutralization IC90 was found to be 0.0831 µg/mL, the Neutralization IC95 stood at 0.185 µg/mL and the neutralization IC50 came out at 0.0076 µg/mL. In experiment [23], the Neutralization IC80 is greater than 10 µg/mL, the Neutralization IC90 was greater than 10 µg/mL, the Neutralization IC95 was greater than 10 µg/mL and the neutralization IC50 was greater than 10 µg/mL.

On to PGV04 (antibody), for which the IC50, single-round pseudovirus neutralization in experiment [24] was determined as 0.25 µg/mL. The substance further returned an IC50 (µg/mL), pseudovirus neutralization in [25] of 17.5 µg/mL. Besides, in experiment [26], the IC50 stood at 0.555 µg/mL.

With 5123_A06 (PGT-125) (antibody), in [27], the Neutralization by PGT-125, IC50 is 2.31 µg/mL; the Neutralization by PGT-125, IC80 is greater than 10 µg/mL; the Neutralization by PGT-125, IC90 is greater than 10 µg/mL; the Neutralization by PGT-125, IC95 was greater than 10 µg/mL. In experiment [28], the Neutralization by PGT-125, IC50 is greater than 10 µg/mL; the Neutralization by PGT-125, IC80 was greater than 10 µg/mL; the Neutralization by PGT-125, IC90 is greater than 10 µg/mL; the Neutralization by PGT-125, IC95 was greater than 10 µg/mL.

5147_N06 (PGT-130) (antibody) gave a Fold IC50 increase relative to wild-type in experiment [29] of 1.6 fold.
